Laboratory results reported in patent publication US20200291135A1 (INSPIRNA, published 2020).

Experiments:
[1] = molecular target: T1, extracellular MERTK domain (W3725-hPro1, Sino Biological, 10298-HCCH) (human, UniProt Q12866 21-505); assay: SPR, affinity format: z10 captured by anti-human Fc on CM5 chip, extracellular MERTK domain as analyte, 1:1 fit; Affinity, SPR
T1 construct: extracellular domain; also called human extracellular MERTK
T1 sequence (looked up): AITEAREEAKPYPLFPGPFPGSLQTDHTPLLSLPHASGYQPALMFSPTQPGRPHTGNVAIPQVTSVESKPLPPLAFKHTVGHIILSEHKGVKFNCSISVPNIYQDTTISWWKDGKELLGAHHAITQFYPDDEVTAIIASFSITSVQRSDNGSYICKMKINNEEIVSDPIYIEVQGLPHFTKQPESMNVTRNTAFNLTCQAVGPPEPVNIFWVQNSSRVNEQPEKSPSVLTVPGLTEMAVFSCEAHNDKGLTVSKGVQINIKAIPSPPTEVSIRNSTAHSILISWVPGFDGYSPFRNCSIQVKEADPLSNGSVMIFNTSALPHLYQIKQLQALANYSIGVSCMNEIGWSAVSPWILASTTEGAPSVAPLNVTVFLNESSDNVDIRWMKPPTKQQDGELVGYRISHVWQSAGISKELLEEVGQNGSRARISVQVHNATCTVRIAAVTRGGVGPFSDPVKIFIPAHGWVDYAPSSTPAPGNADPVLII
Description: A CM5 sensor chip was activated for 420 s with a mixture of 400 mM EDC and 100 mM NHS. […] The chip was deactivated by 1 M ethanolamine-HCl. […] 10 mM glycine pH 1.5 as regeneration buffer was injected following every dissociation phase. The chip was regenerated with 10 mM glycine pH 1.5. One surface channel (without captured ligand) was used as control surface for reference subtraction. Final data of each interaction was deducted from reference channel and buffer channel data. […] A molecular weight of 54 kDa was used to calculate the molar concentration of the analyte.

[2] = molecular target: T2, rhMer/Fc Chimera (recombinant human MERTK extracellular domain conjugated to an IgG Fc domain) (human, UniProt Q12866 21-505); assay: SPR, avidity format: rhMer/Fc Chimera immobilised on CM5 chip, antibody as analyte, 1:1 fit
T2 construct: extracellular domain; also called hMER recombinant protein; Mer-Fc conjugate; not shown: IgG Fc domain
T2 sequence (looked up): T1 sequence (looked up)
Description: With respect to avidity and affinity measurements using SPR, the protocols below were used.
The activator was prepared with a mixture of 400 mM EDC and 100 mM NHS immediately prior to injection. The CM5 sensor chip was activated for 420 s with the mixture. […] The chip was deactivated by 1 M ethanolamine-HCl. […] 8 concentrations (0.3125, 0.625, 1.25, 2.5, 5, 10, 20 and 40 nM) of the antibodies and running buffer were injected at a flow rate of 30 μL/min for an association phase of 240 s, followed by 4800 s dissociation. 10 mM glycine pH 1.5 as regeneration buffer was injected following every dissociation phase. The chip was regenerated with 10 mM glycine pH 1.5. One surface channel without capturing ligand was used as control surface for reference subtraction. Final data of each interaction was deducted from reference channel and buffer channel data. […] A molecular weight of 150 kDa was used to calculate the molar concentration of the antibodies.

[3] = molecular target: T3, murine MERTK extracellular domain conjugated to an IgG Fc domain (murine, UniProt Q60805 19-497); assay: competition ELISA: soluble mMer-Fc (varied) equilibrated with z10, free z10 caught on plate-coated hMER
T3 construct: extracellular domain; also called mMER; not shown: IgG Fc domain
T3 sequence (looked up): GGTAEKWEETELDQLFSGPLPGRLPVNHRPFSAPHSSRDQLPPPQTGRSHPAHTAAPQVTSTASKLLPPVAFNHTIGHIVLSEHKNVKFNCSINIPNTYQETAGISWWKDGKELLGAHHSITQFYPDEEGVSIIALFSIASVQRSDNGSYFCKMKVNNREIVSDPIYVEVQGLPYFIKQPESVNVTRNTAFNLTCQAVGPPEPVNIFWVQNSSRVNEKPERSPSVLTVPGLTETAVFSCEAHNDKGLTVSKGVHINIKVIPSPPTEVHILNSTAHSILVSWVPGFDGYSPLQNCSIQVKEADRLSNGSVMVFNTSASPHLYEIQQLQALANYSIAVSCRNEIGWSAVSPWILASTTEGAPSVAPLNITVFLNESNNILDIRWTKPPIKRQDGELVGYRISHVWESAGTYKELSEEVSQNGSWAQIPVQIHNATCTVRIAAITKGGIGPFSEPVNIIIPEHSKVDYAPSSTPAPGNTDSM
Description: (§1) Plates were washed three times with PBS 0.1% Tween and blocked with 3% non-fat dry skim milk in PBS for 2 h.
(§2) During the saturation step, dilutions of the antigen hAxl (RnD Systems, 154-AL-100), hTyro3 (RnD Systems, 859-DK-100) or mMER (RnD Systems, 591-MR-100)] were prepared at 50 nM as the highest concentration, and serially diluted 1:1 to 0.098 nM in PBS. […] Then, the saturated plate was washed three times with PBS 0.1% Tween and the antigen-antibody mixture was added to the wells in duplicate and incubated for 1 h at room temperature. The plate was then washed three times with PBS 0.1% Tween and incubated with anti-human Alkaline Phosphatase antibody (Sigma, SAB 3701248) at a dilution of 1:3000 in PBS for 1 h at room temperature. After washing three times with PBS 0.1% Tween, 100 uL of Alkaline Phosphatase Yellow (pNPP) liquid substrate system (Sigma, P7998) was added in each well and incubated for 70 min at room temperature. Plates were read at 405 nm and at 570 nm, to correct plate inconsistencies, using Glomax Discover System from Promega The absorbance was plotted as a function of antigen concentration and the Kd was calculated using GraphPad Prism 7.0c.

[4] = molecular target: T4, human Tyro3 extracellular domain (human, UniProt Q06418 41-429); assay: competition ELISA: soluble hTyro3-Fc (varied) equilibrated with z10, free z10 caught on plate-coated hMER
T4 construct: extracellular domain; also called hTyro3
T4 sequence (looked up): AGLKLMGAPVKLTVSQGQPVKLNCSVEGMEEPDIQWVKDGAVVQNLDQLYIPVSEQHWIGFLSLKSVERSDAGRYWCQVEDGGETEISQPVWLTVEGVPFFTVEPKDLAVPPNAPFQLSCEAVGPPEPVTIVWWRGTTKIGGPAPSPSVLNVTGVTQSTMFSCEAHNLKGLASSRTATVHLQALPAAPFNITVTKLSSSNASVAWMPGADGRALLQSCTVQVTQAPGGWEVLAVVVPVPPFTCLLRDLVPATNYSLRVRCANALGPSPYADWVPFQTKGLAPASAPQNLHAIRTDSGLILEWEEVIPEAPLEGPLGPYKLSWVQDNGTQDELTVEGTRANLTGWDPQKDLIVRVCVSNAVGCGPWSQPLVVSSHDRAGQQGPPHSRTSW
Description: as §1, §2

- Kd [1]: 3 nM
- Kd [2]: 0.00574 nM
- binding result [3]: no binding (tested: 50 nM)
- binding result [4]: no binding (tested: 50 nM)
B1: z10 antibody (antibody, human IgG1, kappa, V domains shown)
VH: QVQLVQSGAEVKKPGASVKVSCKASGYTFTNYGMNWVRQAPGQGLEWMGWINTYTGEPTYADDFKGRVTFTTDTSTSTAYMELRSLRSDDMAVYYCARKSTVVSRYFDVWGQGTTVTVSS
VL: DIQMTQSPSFLSASVGDRVTITCKASQDVGDAVTWYQQKPGKAPKLLIYWASTRHTGVPDRFSGSGSGTDFTLTISSLQPEDFATYYCQQYRSYPLTFGQGTKLEIKR
notes: also called MERTK (z10) antibody
